Publication PMC10353856

B1: (GGAA)10 G4 RNA 40-mer (structured_RNA)
RNA: GGAAGGAAGGAAGGAAGGAAGGAAGGAAGGAAGGAAGGAA
B2: Alexa 488-(GGAA)10 RNA (structured_RNA)
RNA: B1 RNA

Columns and labels:
[1] = target: PRC2 5-mer WT (EZH2-SUZ12-EED-RBBP4-AEBP2) (UniProt Q15910;Q15022;O75530;Q09028;Q6ZN18 1-746;1-739;1-441;1-425;1-517); assay: EMSA
[2] = target: T1, PRC2 5-mer MT (RNA-binding mutant EZH2) (UniProt Q15910;Q15022;O75530;Q09028;Q6ZN18 1-746;1-739;1-441;1-425;1-517, F32A;R34A;D36A;K39A;P489N;R490A;K491A;K492I;K493R;R494S); assay: EMSA
[3] = target: T1, PRC2 5-mer MT (RNA-binding mutant EZH2); assay: fluorescence anisotropy
[4] = target: PRC2 4-mer MT (RNA-binding mutant EZH2) (UniProt Q15910;Q15022;O75530;Q09028 1-746;1-739;1-441;1-425, F32A;R34A;D36A;K39A;P489N;R490A;K491A;K492I;K493R;R494S); assay: fluorescence anisotropy
PRC2 4-mer MT (RNA-binding mutant EZH2), sequence (Q15910 whole entry F32A/R34A/D36A/K39A/P489N/R490A/K491A/K492I/K493R/R494S, chain 1 of 4): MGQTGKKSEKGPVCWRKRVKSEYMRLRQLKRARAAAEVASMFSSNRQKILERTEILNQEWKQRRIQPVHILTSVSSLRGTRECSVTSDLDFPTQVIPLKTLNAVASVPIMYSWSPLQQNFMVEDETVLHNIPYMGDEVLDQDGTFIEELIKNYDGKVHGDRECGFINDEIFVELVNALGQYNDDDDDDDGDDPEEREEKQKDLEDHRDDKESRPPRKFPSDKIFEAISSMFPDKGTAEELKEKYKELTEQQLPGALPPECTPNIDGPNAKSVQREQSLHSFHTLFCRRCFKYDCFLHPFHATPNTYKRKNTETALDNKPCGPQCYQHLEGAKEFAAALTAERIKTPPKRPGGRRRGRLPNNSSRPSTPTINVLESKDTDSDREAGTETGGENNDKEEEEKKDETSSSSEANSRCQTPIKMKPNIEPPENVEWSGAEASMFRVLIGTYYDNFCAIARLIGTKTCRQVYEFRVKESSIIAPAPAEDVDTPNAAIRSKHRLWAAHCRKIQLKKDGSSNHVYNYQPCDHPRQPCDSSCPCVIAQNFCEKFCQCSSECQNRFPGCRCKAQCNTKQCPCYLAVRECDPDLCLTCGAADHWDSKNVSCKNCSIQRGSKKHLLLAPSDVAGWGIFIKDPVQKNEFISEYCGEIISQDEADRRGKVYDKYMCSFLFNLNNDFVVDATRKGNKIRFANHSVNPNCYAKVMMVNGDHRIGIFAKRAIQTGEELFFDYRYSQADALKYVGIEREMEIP
PRC2 4-mer MT (RNA-binding mutant EZH2), sequence (Q15022 whole entry, stated change not applied, chain 2 of 4): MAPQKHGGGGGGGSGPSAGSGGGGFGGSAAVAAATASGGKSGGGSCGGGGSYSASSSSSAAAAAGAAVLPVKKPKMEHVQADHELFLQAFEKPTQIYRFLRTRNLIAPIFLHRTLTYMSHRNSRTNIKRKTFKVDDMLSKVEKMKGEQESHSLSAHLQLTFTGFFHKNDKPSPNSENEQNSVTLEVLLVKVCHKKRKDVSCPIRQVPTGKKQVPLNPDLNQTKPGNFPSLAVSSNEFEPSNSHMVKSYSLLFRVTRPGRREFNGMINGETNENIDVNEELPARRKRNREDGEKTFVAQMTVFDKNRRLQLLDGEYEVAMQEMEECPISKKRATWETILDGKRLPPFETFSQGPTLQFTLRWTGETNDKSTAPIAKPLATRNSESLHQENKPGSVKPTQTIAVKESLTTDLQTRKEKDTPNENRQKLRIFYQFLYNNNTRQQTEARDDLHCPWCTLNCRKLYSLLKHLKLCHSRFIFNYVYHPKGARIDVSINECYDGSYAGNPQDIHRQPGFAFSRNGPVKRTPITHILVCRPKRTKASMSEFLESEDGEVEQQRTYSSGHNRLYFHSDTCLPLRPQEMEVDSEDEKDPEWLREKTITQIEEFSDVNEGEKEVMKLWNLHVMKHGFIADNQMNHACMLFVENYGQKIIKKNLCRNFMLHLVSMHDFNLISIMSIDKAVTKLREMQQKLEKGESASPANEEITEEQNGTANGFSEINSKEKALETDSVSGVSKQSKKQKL
PRC2 4-mer MT (RNA-binding mutant EZH2), sequence (O75530 whole entry, stated change not applied, chain 3 of 4): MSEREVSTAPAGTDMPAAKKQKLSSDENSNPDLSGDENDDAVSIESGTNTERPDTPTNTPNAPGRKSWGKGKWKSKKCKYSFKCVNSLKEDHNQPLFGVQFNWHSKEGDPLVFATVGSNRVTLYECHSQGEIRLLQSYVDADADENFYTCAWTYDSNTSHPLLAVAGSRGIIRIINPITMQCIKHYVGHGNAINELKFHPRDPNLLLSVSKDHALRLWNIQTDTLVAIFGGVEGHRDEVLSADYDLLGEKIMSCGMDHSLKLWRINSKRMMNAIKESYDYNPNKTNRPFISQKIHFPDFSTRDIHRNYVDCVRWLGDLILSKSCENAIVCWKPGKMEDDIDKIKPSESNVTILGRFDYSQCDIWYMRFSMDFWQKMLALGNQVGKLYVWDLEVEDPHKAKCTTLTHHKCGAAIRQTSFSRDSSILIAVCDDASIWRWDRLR
PRC2 4-mer MT (RNA-binding mutant EZH2), sequence (Q09028 whole entry, stated change not applied, chain 4 of 4): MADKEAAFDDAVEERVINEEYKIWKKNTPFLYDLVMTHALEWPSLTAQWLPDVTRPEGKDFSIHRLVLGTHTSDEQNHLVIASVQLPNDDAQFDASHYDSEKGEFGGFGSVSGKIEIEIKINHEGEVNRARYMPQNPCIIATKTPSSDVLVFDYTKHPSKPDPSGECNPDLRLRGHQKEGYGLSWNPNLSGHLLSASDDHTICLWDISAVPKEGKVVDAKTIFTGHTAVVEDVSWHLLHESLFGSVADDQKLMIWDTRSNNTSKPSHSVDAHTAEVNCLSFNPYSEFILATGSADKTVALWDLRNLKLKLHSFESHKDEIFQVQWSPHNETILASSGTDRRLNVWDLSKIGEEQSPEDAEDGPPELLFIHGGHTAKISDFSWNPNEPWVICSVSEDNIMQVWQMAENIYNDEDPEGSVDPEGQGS

Row | Binder | Kd [1] | Kd [2] | binding signal [3] | binding signal [4]
1 | B1 | 2 nM | 12 nM | – | –
2 | B2 | – | – | 30 fold koff increase vs WT | 8 fold koff increase vs WT
